Source: publication doi:10.1101/2023.04.11.536446

Molecular target: Langya virus fusion protein (LayV-F) ectodomain, uncleaved (Langya virus)
Experiment: cryo-EM structure

Langya virus fusion protein (LayV-F) ectodomain, uncleaved (domain or fragment)
stoichiometry N: 3
